{"source": "patent US20260008852A1", "about": "(CRYSTAL BIOSCIENCE, published 2026)", "binders": {"B1": {"name": "40579p1.C2 IgG (antibody, V domains shown)", "VH": "EVQLLESGGDLVQPGGSLRLSCAASGFNFSSYWMSWVRQAPGKGLEWVSGISISYGGNAYYADSVKGRFTVSRDNSKNTLYLQMNSLRAEDTAVYYCGRDRSPYQYRSMDVWGQGTTVTVSS", "VL": "EIVLTQSPATLSVSPGERATFSCRASQTIGNKLAWYQQKPGQAPRLLIFSASTRATDIPDRFSGSGSGTDFTLTISSLQSEDFAVYYCQQYNNWPPLTFGGGTKVEIK"}, "B2": {"name": "40579p1.D1 IgG (antibody, V domains shown)", "VH": "B1 VH with D10G, N28T, S31D, W33Y, G50S, N58T, A59T, V71I, G98A, Y106C", "VL": "EIVLTQSPGSLSLSPGERATLSCRASQSVNSDLAWYQQKPGQAPRLLIYAASSRATGIPARFSGSGSGTEFTLTISSLQSEDFAVYYCQQYNNWPPLTFGGGTKVEIK"}, "B3": {"name": "40579p1.D8 IgG (antibody, V domains shown)", "VH": "B1 VH with D10G, N28T, S31D, W33Y, G50S, N58T, A59T, V71I, G98A, Y106C", "VL": "B2 VL with S10T, V29I, N30R, A50N, A51T, S52V, S53T, I58V, A60D, N93S"}, "B4": {"name": "40579p1.F7 IgG (antibody, V domains shown)", "VH": "B1 VH with D10G, N28T, S31D, W33Y", "VL": "EIVLTQSPGTLSLSPGERATLTCRASQSVGDFLAWYQQKPGQAPRLLIYGASTRAAGIPARFRGSGSGTDFTLTISSLQSEDFAVYYCQQYKNWPPLTFGGGTKVEIK"}, "B5": {"name": "40511p1.1.A1 IgG (antibody, V domains shown)", "VH": "DVQLVESGGGVVRPGESLRLSCAASGFTFSNYAMNWVRQAPGEGLEWVSRINYKGYNITYYADSVKGRFTISRDNSKNTLYLQMNSLRAEDTAVYYCAKSGSNSNNFFDYWGLGTLVTVSS", "VL": "EIVLTQSPGTLSVSPGERATLSCRASQSVNSKLAWYQQRPGQAPRLLIYDASSRATGIPDRFSGSGSGTDFTLTISRLEPEDFAVYYCQQYKNWPPLTFGGGTKVEIK"}, "B6": {"name": "40511p1.1.H5 IgG (antibody, V domains shown)", "VH": "B5 VH", "VL": "B2 VL with S10T, V29I, N30R, A50G, S52A, E81G, N93S"}, "B7": {"name": "40633p1.2.E1 IgG (antibody, V domains shown)", "VH": "EVQLLESGRGLVQPGGSLRLSCAASGFTVSYYGMSWVRQAPGKGLEWVSVIKQDGSEEYYADSVKGRFTISRDNSKNTLYLQMNSLRAEDTAVYYCARHWNDYSNGMNVWGQGTTVTVSS", "VL": "QSVLTQPPSASGTPGQRVTISCSGSTSNVGDRYVYWYQQLPGTAPKLLIYLDDQRPSGVPDRFSGSKSGTSASLAISGLQSEDEADYYCASWDASLNGWVFGGGTKLTVL"}, "B8": {"name": "40633p1.2.F3 IgG (antibody, V domains shown)", "VH": "B7 VH with R9G", "VL": "not shown"}, "B9": {"name": "40511p1.1.D6 IgG (antibody, V domains shown)", "VH": "DVQLVESGGGVVRPGESLTLSCAASGFTINSYAVSWVRQAPGEGLEWVSGISGSGVRYYADSVKGRFTISRDNSNNTLYLQMNSLRAEDTAVYYCARSNKVTWNNFFDYWGLGTLVTVSS", "VL": "EVVLTQSPGTLTLSPGERATLSCRASRSILTSLAWYQQKPGQAPRLLIYNTVTRATGIPARFSGSGSGTEFTLTINSLQSEDFAVYYCQQYYDWPPLTFGGGTKVEIK"}, "B10": {"name": "40511p1.1.G3 IgG (antibody, V domains shown)", "VH": "B9 VH with N73D", "VL": "B9 VL"}, "B11": {"name": "40633p1.2.E5 IgG (antibody, V domains shown)", "VH": "EVQLLESGGGLVQPGGSLRLSCAASGFTFDGYGMSWVRQAPGKGLEWVSAISGNSGSIYYADSVKGRFTISRDNSKNTLYLQMNSLRAEDTAAYYCAKEKWKHFIYYGMDVWGQGTTVTVSS", "VL": "not shown"}, "B12": {"name": "40511p1.1.G1 IgG (antibody, V domains shown)", "VH": "DVQLVESGGGVVRPGESLRLSCAASGFTFSSYAESWVRQAPGEGLEWVSIISGSGGNTFYADSVKGRFTISRDNSKNTLYLQMNSLRAEDTAVYYCARFAYGFFDYWGLGTLVTVSS", "VL": "EIVLTQSPGTLSVSPGEGATLSCRASQTVGSKLAWYQQKPGQPPSLLIYDASTRATGIPDRFSGSGSGTDFTLTISSLQSEDFAVYYCQQYRNWPPLTFGGGTKVEIK"}, "B13": {"name": "40511p1.2.A12 IgG (antibody, V domains shown)", "VH": "B12 VH", "VL": "B12 VL with G18R"}, "B14": {"name": "40511p1.2.A4 IgG (antibody, V domains shown)", "VH": "B12 VH", "VL": "B12 VL with G18R, P43A, S45R, G57D"}, "B15": {"name": "40511p1.2.G10 IgG (antibody, V domains shown)", "VH": "B5 VH", "VL": "B12 VL with V13L, G18R, P43A, S45R, D50G, G57D, D70E, R92I, T98S"}, "B16": {"name": "40633p1.2.G9 scFv-Fc (scFv, V domains shown)", "VH": "EVQLLESGGGLLQPGGSLRLSCAASGFSFSSYGMHWVRQAPGKGLEWVAAINSDGSRIYYADSVEGRFTISRDNSKNTLYLQMNSLRAEDTAVYYCTKYYYHYAMDVWGQGTTVTVSS", "VL": "QSVLTQPPSASGTPGQRVTISCSGSRSDIGATTVNWYQQLPGTAPKLLIYQSHLRPSGVPDRFSGSKSGTSASLAISGLQSEDEADYYCASWDASLNTWVFGGGTKLTVL"}, "B17": {"name": "40633p1.2.E11 scFv-Fc (scFv, V domains shown)", "VH": "EVQLLESGGGLVQPGGSLRLSCAASGFSFSNYDMSWVRQAPGKGLEWVAGIRSGSRTYYADSVKGRFTISRDNSKNTLYLQMNSLRAEDTATYYCGRYFNMDVWGQGTTVTVSS", "VL": "QSVLTQPPSASGTPGQRVTISCSGSTFNIGTNLVHWYQQLPGTAPKLLIYLTDRRPPGVPDRFSGSKSGTSASLAISGLQSEDEANYYCATWDDSLNSFLFGGGTKLTVL"}, "B18": {"name": "40633p1.2.D11 scFv-Fc (scFv, V domains shown)", "VH": "EVQLESGGGLVQPGGSLRLSCAASGFTVSYYGMSWVRQAPGKGLEWVSAIKQDGSEKYYADSVKGRFTISRDNSKNTLYLQMNSLRAEDTAVYYCARHWNDYSNAMNVWGQGTTVTVSS", "VL": "B7 VL with V29I, G30A, D31I, R32D, Y33F, Y35N, L51T, D52I, D86V, G103R", "notes": "Tested as scFv-Fc supernatant"}, "B19": {"name": "40633p1.2.E5 scFv-Fc (scFv, V domains shown)", "VH": "B11 VH", "VL": "not shown", "notes": "Tested as scFv-Fc supernatant"}, "B20": {"name": "Benchmark MGA-271 (antibody, V domains shown)", "VH": "EVQLVESGGGLVQPGGSLRLSCAASGFTFSSFGMHWVRQAPGKGLEWVAYISSDSSAIYYADTVKGRFTISRDNAKNSLYLQMNSLRDEDTAVYYCGRGRENIYYGSRLDYWGQGTTVTVSS", "VL": "DIQLTQSPSFLSASVGDRVTITCKASQNVDTNVAWYQQKPGKAPKALIYSASYRYSGVPSRFSGSGSGTDFTLTISSLQPEDFATYYCQQYNNYPFTFGQGTKLEIK"}}, "note": "Substitutions are numbered along the chain they refer to."}
{"target": "T1, B7-H3 on CHO-K1 cells stably transfected with B7-H3 (GenScript #M00536) (UniProt Q5ZPR3 29-534, limits assumed)", "T1 sequence (looked up)": "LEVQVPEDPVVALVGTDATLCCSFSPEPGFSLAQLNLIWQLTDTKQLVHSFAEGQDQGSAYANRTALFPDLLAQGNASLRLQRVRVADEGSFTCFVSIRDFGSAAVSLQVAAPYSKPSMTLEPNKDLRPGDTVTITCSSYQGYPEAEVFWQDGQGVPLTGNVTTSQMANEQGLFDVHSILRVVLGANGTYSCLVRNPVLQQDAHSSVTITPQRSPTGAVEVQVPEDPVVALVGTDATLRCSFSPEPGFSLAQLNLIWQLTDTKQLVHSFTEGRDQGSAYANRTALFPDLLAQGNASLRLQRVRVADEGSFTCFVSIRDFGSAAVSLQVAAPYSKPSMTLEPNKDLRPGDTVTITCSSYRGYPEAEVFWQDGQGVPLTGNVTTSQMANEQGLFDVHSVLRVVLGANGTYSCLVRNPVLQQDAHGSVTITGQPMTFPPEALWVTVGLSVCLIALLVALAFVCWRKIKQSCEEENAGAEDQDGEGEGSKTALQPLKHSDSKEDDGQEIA", "assay": "cell-based or functional assay", "units": {"ADCC reporter assay, EC50 Value, CHOK1/B7-H3 cells": "µg/mL", "ADCC reporter assay, Max RLU, CHOK1/B7-H3 cells": "RLU"}}
{"binder": "B1", "ADCC reporter assay, EC50 Value, CHOK1/B7-H3 cells": 0.0116, "ADCC reporter assay, Max RLU, CHOK1/B7-H3 cells": 843000}
{"binder": "B2", "ADCC reporter assay, EC50 Value, CHOK1/B7-H3 cells": 0.274, "ADCC reporter assay, Max RLU, CHOK1/B7-H3 cells": 744000}
{"binder": "B3", "ADCC reporter assay, EC50 Value, CHOK1/B7-H3 cells": 0.075, "ADCC reporter assay, Max RLU, CHOK1/B7-H3 cells": 728000}
{"binder": "B4", "ADCC reporter assay, EC50 Value, CHOK1/B7-H3 cells": 0.0124, "ADCC reporter assay, Max RLU, CHOK1/B7-H3 cells": 641000}
{"binder": "B5", "ADCC reporter assay, EC50 Value, CHOK1/B7-H3 cells": 0.0124, "ADCC reporter assay, Max RLU, CHOK1/B7-H3 cells": 820000}
{"binder": "B6", "ADCC reporter assay, EC50 Value, CHOK1/B7-H3 cells": 0.0164, "ADCC reporter assay, Max RLU, CHOK1/B7-H3 cells": 762000}
{"binder": "B7", "ADCC reporter assay, EC50 Value, CHOK1/B7-H3 cells": 0.031, "ADCC reporter assay, Max RLU, CHOK1/B7-H3 cells": 725000}
{"binder": "B8", "ADCC reporter assay, EC50 Value, CHOK1/B7-H3 cells": 0.03, "ADCC reporter assay, Max RLU, CHOK1/B7-H3 cells": 700000}
{"binder": "B9", "ADCC reporter assay, EC50 Value, CHOK1/B7-H3 cells": 0.014, "ADCC reporter assay, Max RLU, CHOK1/B7-H3 cells": 751000}
{"binder": "B10", "ADCC reporter assay, EC50 Value, CHOK1/B7-H3 cells": 0.0141, "ADCC reporter assay, Max RLU, CHOK1/B7-H3 cells": 723000}
{"binder": "B11", "ADCC reporter assay, EC50 Value, CHOK1/B7-H3 cells": 0.0268, "ADCC reporter assay, Max RLU, CHOK1/B7-H3 cells": 669000}
{"binder": "B12", "ADCC reporter assay, EC50 Value, CHOK1/B7-H3 cells": 0.0416, "ADCC reporter assay, Max RLU, CHOK1/B7-H3 cells": 679000}
{"binder": "B13", "ADCC reporter assay, EC50 Value, CHOK1/B7-H3 cells": 0.0352, "ADCC reporter assay, Max RLU, CHOK1/B7-H3 cells": 598000}
{"binder": "B14", "ADCC reporter assay, EC50 Value, CHOK1/B7-H3 cells": 0.0318, "ADCC reporter assay, Max RLU, CHOK1/B7-H3 cells": 548000}
{"binder": "B15", "ADCC reporter assay, EC50 Value, CHOK1/B7-H3 cells": "~0.0103", "ADCC reporter assay, Max RLU, CHOK1/B7-H3 cells": 893000}
{"target": "T2, his-tagged B7-H3 (UniProt Q5ZPR3-2 29-245, limits assumed)", "T2 construct": "also called CD276; not shown: His tag", "T2 sequence (looked up)": "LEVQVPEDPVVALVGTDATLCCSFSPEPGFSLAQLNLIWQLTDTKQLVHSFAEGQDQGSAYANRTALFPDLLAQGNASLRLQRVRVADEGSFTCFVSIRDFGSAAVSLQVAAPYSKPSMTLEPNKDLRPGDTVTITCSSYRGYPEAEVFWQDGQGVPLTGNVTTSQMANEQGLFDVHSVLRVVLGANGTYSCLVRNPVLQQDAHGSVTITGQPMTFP", "assay": "SPR, Carterra LSA; binder captured by anti-human Fc, his-tagged B7-H3 injected", "experimental": "Binding affinities of anti-B7-H3 antibodies to B7-H3 were measured by Surface Plasmon Resonance (SPR) on a Carterra LSA instrument. Goat anti-human Fc antibody was amine coupled to a HC30M chip. ScFv-Fc supernatants were diluted 30-fold with HBSTE and were captured by the anti-human Fc coupled HC30M chip. A 1:2 dilution series of his-tagged B7-H3, starting at 400 nM, was injected onto the chip for binding. Data was analyzed using the Carterra TM Kinetics software.", "units": {"Kd": "nM", "kon": "M⁻¹ s⁻¹", "koff": "s⁻¹"}}
{"binder": "B16", "Kd": 10.8, "kon": 325000}
{"binder": "B17", "Kd": 1.11, "kon": 134000}
{"binder": "B18", "Kd": 307, "koff": 0.07, "kon": 241000}
{"binder": "B19", "Kd": 40.2, "koff": 0.02, "kon": 389000}
{"binder": "B20", "Kd": 164, "koff": 0.01, "kon": 72000}
